Reference: PMC13544220, “Glycemic and bodyweight effects of GIPR coding variation reflect differences in surface expression and intrinsic functional impairment” (Science Advances, 2026)

Key:
Format in all cases: cell-based, human
[1] = test system: wild-type and variant SNAP-GIPR; assay: Surface SNAP-GIPR expression (SNAP-tag labelling) in AD293 cells; settings: for AD293 Surface: Fig S3E, mean; for Surface SNAP-GIPR expression: sheet Fig 1C;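 as to all read-outs here: scaled to the experimental average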
Method in brief: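 Surface GIPR is quantified from wide-field images after labelling intact transfected cells with a membrane-impermeant SNAP probe at 500 nM for 10 min at room temperature. Specific signal, corrected for nontransfected cells, is normalized to the experiment-wide average or to wild-type.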

[2] = test system: wild-type and variant SNAP-GIPR; assay: Surface SNAP-GIPR expression (SNAP-tag labelling) in INS-1 cells; settings: Fig 4G; Mean
Description: Twenty-four hours before the experiment, AD293 or INS-1 cells were reverse transfected with GIPR variant or wild-type plasmids using Lipofectamine 2000 in 96-well, clear-bottom, black microplates precoated with poly-D-lysine. All variants were tested in parallel on each occasion to control for transfection efficiency differences between experiments. Cells were then labeled using the cell-impermeant probe SNAP-Surface Alexa Fluor 647 (500 nM, New England Biolabs, USA) for 10 min at room temperature to label only surface GIPR. […] Several fields of view (FOVs) were acquired within each well using a 20X, 0.75–numerical aperture (NA) air objective. Surface GIPR fluorescence was quantified after flat-field correction using BaSiC ([72]) and segmenting using Phantast ([73]), which generates a mask based on the phase contrast images to demarcate cell versus noncell. Wide-field imaging of the surface-specific labeling achieved by SNAP-Surface probes means that surface expression can be established from whole-cell fluorescence, after subtracting nonspecific fluorescence from a separate well containing nontransfected cells processed in parallel from the same experiment. Data were normalized by dividing by the average specific signal across each experiment, or by the wild-type value, as indicated in the figure legends.

[3] = test system: wild-type and variant SNAP-GIPR; assay: Single-concentration GIP cAMP response by HTRF in AD293 cells; settings: Fig S3F, HTRF, mean;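 also: ratio to experiment-wide average response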
Description: (§1) All variants were tested in parallel on each occasion to control for transfection efficiency differences between experiments.

[4] = test system: wild-type and variant SNAP-GIPR; assay: Single-concentration GIP cAMP response by HTRF in INS-1 cells; settings: Fig S3E, mean
Description: as §1

[5] = test system: wild-type and variant SNAP-GIPR; assay: cADDis cAMP imaging in AD293 cells, ensemble, expression-matched and per decile; settings: Fig S3F, cADDis, mean
Description: AD293 cells were reverse transfected with the GIPR variant or wild-type plasmids using Lipofectamine 2000 and cotransduced with the cADDis Green Up BacMam (10 μl per well, Montana Molecular, USA), in 96-well, poly-D-lysine–coated microplates. All variants were tested in parallel on each occasion to control for transfection efficiency differences between experiments. After 24 hours, cells were labeled using 500 nM SNAP-Surface Alexa Fluor 647 for 10 min at room temperature. Cells were washed three times and then imaged in KRBH buffer containing 6 mM glucose and 0.1% BSA. Imaging was performed at 37°C by wide-field microscopy using the same microscope as in the “Assessment of surface GIPR expression by SNAP-tag labeling in cell lines” section, with 9 FOVs for both cADDis and SNAP-Surface fluorescence acquired from each well using a 10X, 0.45 NA air objective. […] Flat-field correction was performed using BaSiC ([72]), drift correction was performed using SIFT, and a maximum intensity projection of the cADDis channel was used to segment individual cells. cAMP responses were determined by quantifying the cADDis fluorescence intensity for each cell at each time point. Nonviable cells or noncell objects were excluded according to criteria for allowable cell IBMX/FSK responses. […] The cADDis mask was then used to quantify the SNAP-Surface signal from each cell. Wild-type SNAP-Surface readings were split into deciles, and these deciles were subsequently used to categorize variant-transfected cells to match against the wild type. After trimming the top and bottom deciles, the mean was taken of each decile mean for surface expression level or cAMP response, which achieved matched expression levels by effectively applying an inverse weighting to counteract differences in cell number in each decile for different variants. Ensemble expression levels or cAMP responses were calculated without regard to deciles. Variant cADDis responses were also analyzed within their own surface expression deciles.

[6] = test system: wild-type and variant SNAP-GIPR; assay: Constitutive and agonist-mediated internalization, reversible SNAP-tag labelling, AD293 cells; design: key to Internalisation, Vehicle / Internalisation, +GIP / Internalisation, GIP-only: % internalization: residual fluorescence after Mesna vs pre-Mesna; Surface expression: unit not given here; settings: Mean
Description: (§2) Twenty-four hours before the experiment, AD293 or INS-1 cells were reverse transfected with GIPR variant or wild-type plasmids using Lipofectamine 2000 in 96-well, clear-bottom, black microplates precoated with poly-D-lysine. All variants were tested in parallel on each occasion to control for transfection efficiency differences between experiments. […] Media were then removed, cells washed with PBS and then placed in TNE buffer (pH 8.6) for imaging. […] After 10 min, the well was reimaged again to detect remaining fluorescence from internalized GIPR. Images were analyzed as in the “Assessment of surface GIPR expression by SNAP-tag labeling in cell lines” section, with the residual specific fluorescence after Mesna treatment expressed relative to the pre-Mesna value to establish percentage internalization.

[7] = test system: wild-type and variant SNAP-GIPR; assay: Constitutive and agonist-mediated internalization, reversible SNAP-tag labelling, INS-1 cells; design: key to Internalisation, GIP-only / Internalisation, Vehicle / Internalisation, +GIP: % internalization: residual fluorescence after Mesna vs pre-Mesna; settings: Mean
Description: as §2

B1: L262V (protein, UniProt P48546 22-466, looked up, variant L262V)
Gastric inhibitory …: RAETGSKGQTAGELYQRWERYRRECQETLAAAEPPSGLACNGSFDMYVCWDYAAPNATARASCPWYLPWHHHVAAGFVLRQCGSDGQWGLWRDHTQCENPEKNEAFLDQRLILERLQVMYTVGYSLSLATLLLALLILSLFRRLHCTRNYIHINLFTSFMLRAAAILSRDRLLPRPGPYLGDQALALWNQALAACRTAQIVTQYCVGANYTWLLVEGVYLHSLLVLVGGSEEGHFRYYLLVGWGAPALFVIPWVIVRYLYENTQCWERNEVKAIWWIIRTPILMTILINFLIFIRILGILLSKLRTRQMRCRDYRLRLARSTLTLVPLLGVHEVVFAPVTEEQARGALRFAKLGFEIFLSSFQGFLVSVLYCFINKEVQSEIRRGWHHCRLRRSLGEEQRQLPERAFRALPSGSGPGEVPTSRGLSSGTLPGPGNEASRELESYC
[1]; column repeated, paired with cAMP 100 nM
  AD293 Surface: 1.3
[1]; paired with cAMP 100 pM
  AD293 Surface: 1.3
[1]; replicate 1
  Surface SNAP-GIPR expression: 1.375
[1]; replicate 2
  Surface SNAP-GIPR expression: 0.996
[1]; replicate 3
  Surface SNAP-GIPR expression: 2.76
[1]; replicate 4
  Surface SNAP-GIPR expression: 0.9875
[1]; replicate 5
  Surface SNAP-GIPR expression: 1.257
[1]; replicate 6
  Surface SNAP-GIPR expression: 2.431
[1]; replicate 7
  Surface SNAP-GIPR expression: 1.521
[1]; replicate 8
  Surface SNAP-GIPR expression: 0.9638
[1]; replicate 9
  Surface SNAP-GIPR expression: 1.328
[1]; replicate 10
  Surface SNAP-GIPR expression: 1.382
[1]; replicate 11
  Surface SNAP-GIPR expression: 1.153
[1]; replicate 12
  Surface SNAP-GIPR expression: 1.188
[1]; replicate 13
  Surface SNAP-GIPR expression: 1.165
[1]; replicate 14
  Surface SNAP-GIPR expression: 1.166
[1]; replicate 15
  Surface SNAP-GIPR expression: 1.23
[1]; replicate 16
  Surface SNAP-GIPR expression: 1.047
[1]; replicate 17
  Surface SNAP-GIPR expression: 1.27
[1]; replicate 18
  Surface SNAP-GIPR expression: 1.238
[1]; replicate 19
  Surface SNAP-GIPR expression: 0.9807
[1]; replicate 20
  Surface SNAP-GIPR expression: 0.8682
[1]; replicate 21
  Surface SNAP-GIPR expression: 1.136
[1]; replicate 22
  Surface SNAP-GIPR expression: 1.402
[1]; replicate 23
  Surface SNAP-GIPR expression: 1.295
[1]; replicate 24
  Surface SNAP-GIPR expression: 1.372
[1]; replicate 25
  Surface SNAP-GIPR expression: 1.308
[1]; replicate 26
  Surface SNAP-GIPR expression: 1.104
[1]; replicate 27
  Surface SNAP-GIPR expression: 1.5
[1]; replicate 28
  Surface SNAP-GIPR expression: 1.095
[1]; replicate 29
  Surface SNAP-GIPR expression: 1.555
[1]; replicate 30
  Surface SNAP-GIPR expression: 1.424
[1]; replicate 31
  Surface SNAP-GIPR expression: 1.568
[1]; replicate 32
  Surface SNAP-GIPR expression: 1.239
[1]; replicate 33
  Surface SNAP-GIPR expression: 1.116
[1]; replicate 34
  Surface SNAP-GIPR expression: 1.325
[1]; replicate 35
  Surface SNAP-GIPR expression: 1.446
[1]; replicate 36
  Surface SNAP-GIPR expression: 1.136
[1]; replicate 37
  Surface SNAP-GIPR expression: 0.8646
[1]; replicate 38
  Surface SNAP-GIPR expression: 1.251
[1]; replicate 39
  Surface SNAP-GIPR expression: 1.117
[1]; replicate 40
  Surface SNAP-GIPR expression: 1.314
[1]; replicate 41
  Surface SNAP-GIPR expression: 1.425
[2]
  Surface expression: 1.205
[3]; AD293, 100 pM
  AD293 100 pM HTRF: 1.19
[3]; AD293, 100 nM
  AD293 100 nM HTRF: 1.331
[4]
  INS-1 cAMP (100 nM): 1.234
[5]; AD293, 100 pM
  AD293 100 pM cADDis: 31.1728
[5]; AD293, 100 nM
  AD293 100 nM cADDis: 39.27
[6]; Fig 4E, GIP 100 nM
  +GIP internalisation (100 nM): 0.6926
  GIP-specific internalisation (100 nM): 0.1787
[6]; Fig 4E
  Constitutive internalisation (100 nM): 0.5139
  Surface expression: 1.204
[6]; Fig S4C, AD293
  Internalisation, +GIP: 57.508
  Internalisation, GIP-only: 14.8294
  Internalisation, Vehicle: 42.6786
[7]; Fig 4G, GIP 100 nM
  +GIP internalisation (100 nM): 0.5955
  GIP-specific internalisation (100 nM): 0.1388
[7]; Fig 4G
  Constitutive internalisation (100 nM): 0.4567
[7]; Fig S4C, INS-1
  Internalisation, +GIP: 50.3417
  Internalisation, GIP-only: 11.92
  Internalisation, Vehicle: 38.4217
